The values that follow come from article PMC10427004, “Restoration of energy homeostasis under oxidative stress: Duo synergistic AMPK pathways regulating arginine kinases” (PLOS Genetics, 2023).

For data set [1], the system named is Nc1ncnc2c1ncn2[C@@H]1O[C@H](COP(=O)(O)OP(=O)(O)OP(=O)(O)O)[C@@H](O)[C@H]1O. As to the kind of experiment: pyruvate kinase / lactate dehydrogenase coupled assay, A340, Lineweaver-Burk. Format: biochemical, Tribolium castaneum. The note with it: 5 mM L-arginine, 20 mM MgCl2, pH 7.5, 30 °C.
Data set [2] concerns Nc1ncnc2c1ncn2[C@@H]1O[C@H](COP(=O)(O)OP(=O)(O)O)[C@@H](O)[C@H]1O. As to the kind of experiment: hexokinase / glucose-6-phosphate dehydrogenase coupled assay, A340, Lineweaver-Burk. Conditions: 5 mM phospho-L-arginine, 20 mM MgCl2, pH 7.5, 30 °C. The data set is classed as biochemical, Tribolium castaneum.

On to “6×His-TcAK1 (Tribolium castaneum; T247D)”, for which the Km (commonly the concentration of substrate that gives half-maximal velocity) in data set [1] was found to be 13.0 mM; in data set [2] it was 10.6 mM.

On to “6×His-TcAK1 (Tribolium castaneum; S129D)”, for which the figures for the Km in data set [1] and in data set [2] were 4.5 mM and 19.4 mM, respectively.
